Measured values as given in PMC11194062, “The clade-specific target recognition mechanisms of plant RISCs”.

Columns and labels:
[1] = biological target: T1, AGO4 D660A (Arabidopsis thaliana, UniProt Q9ZVD5 1-924, D660A); assay: filter binding; did not bind at all; 100 mM KOAc, 18 mM HEPES pH 7.4, 3 mM Mg(OAc)2, 5 mM DTT, 0.01% IGEPAL CA-630, 0.01 mg/ml yeast tRNA; 20 pM target; 25 C, 1 h; conditions: protein: ivt; tags: N-terminal 3xFLAG-SUMO, removed by SUMOstar elution; label: target 3' 32P-cordycepin; only g2-g8 paired
T1 sequence: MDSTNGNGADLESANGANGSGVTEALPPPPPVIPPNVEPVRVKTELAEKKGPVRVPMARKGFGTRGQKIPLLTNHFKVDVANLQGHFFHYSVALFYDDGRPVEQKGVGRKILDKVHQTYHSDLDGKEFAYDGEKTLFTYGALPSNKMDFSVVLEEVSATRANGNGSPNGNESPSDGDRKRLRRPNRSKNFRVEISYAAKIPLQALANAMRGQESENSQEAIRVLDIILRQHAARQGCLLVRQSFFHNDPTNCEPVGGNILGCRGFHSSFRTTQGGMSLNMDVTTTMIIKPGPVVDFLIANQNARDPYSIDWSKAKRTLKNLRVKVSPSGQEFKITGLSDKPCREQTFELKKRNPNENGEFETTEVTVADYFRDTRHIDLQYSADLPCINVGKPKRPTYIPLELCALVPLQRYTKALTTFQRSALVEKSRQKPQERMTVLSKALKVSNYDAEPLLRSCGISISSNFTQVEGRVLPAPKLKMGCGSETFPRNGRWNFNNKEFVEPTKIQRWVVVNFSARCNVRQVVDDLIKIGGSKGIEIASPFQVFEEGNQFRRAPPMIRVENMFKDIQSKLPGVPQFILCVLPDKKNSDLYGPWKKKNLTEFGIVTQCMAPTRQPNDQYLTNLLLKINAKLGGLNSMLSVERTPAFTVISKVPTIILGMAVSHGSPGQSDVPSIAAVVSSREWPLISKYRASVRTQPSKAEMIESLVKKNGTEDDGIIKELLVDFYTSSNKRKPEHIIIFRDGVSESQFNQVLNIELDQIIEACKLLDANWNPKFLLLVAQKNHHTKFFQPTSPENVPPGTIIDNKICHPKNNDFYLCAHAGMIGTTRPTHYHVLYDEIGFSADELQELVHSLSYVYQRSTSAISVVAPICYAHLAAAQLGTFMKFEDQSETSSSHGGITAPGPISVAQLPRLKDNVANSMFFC

[2] = biological target: T2, AGO6 D623A (Arabidopsis thaliana, UniProt O48771 1-878, D623A); assay: filter binding; 100 mM KOAc, 18 mM HEPES pH 7.4, 3 mM Mg(OAc)2, 5 mM DTT, 0.01% IGEPAL CA-630, 0.01 mg/ml yeast tRNA; 20 pM target; 25 C, 1 h; conditions: protein: ivt; tags: N-terminal 3xFLAG-SUMO, removed by SUMOstar elution; label: target 3' 32P-cordycepin; target 28 nt
T2 sequence: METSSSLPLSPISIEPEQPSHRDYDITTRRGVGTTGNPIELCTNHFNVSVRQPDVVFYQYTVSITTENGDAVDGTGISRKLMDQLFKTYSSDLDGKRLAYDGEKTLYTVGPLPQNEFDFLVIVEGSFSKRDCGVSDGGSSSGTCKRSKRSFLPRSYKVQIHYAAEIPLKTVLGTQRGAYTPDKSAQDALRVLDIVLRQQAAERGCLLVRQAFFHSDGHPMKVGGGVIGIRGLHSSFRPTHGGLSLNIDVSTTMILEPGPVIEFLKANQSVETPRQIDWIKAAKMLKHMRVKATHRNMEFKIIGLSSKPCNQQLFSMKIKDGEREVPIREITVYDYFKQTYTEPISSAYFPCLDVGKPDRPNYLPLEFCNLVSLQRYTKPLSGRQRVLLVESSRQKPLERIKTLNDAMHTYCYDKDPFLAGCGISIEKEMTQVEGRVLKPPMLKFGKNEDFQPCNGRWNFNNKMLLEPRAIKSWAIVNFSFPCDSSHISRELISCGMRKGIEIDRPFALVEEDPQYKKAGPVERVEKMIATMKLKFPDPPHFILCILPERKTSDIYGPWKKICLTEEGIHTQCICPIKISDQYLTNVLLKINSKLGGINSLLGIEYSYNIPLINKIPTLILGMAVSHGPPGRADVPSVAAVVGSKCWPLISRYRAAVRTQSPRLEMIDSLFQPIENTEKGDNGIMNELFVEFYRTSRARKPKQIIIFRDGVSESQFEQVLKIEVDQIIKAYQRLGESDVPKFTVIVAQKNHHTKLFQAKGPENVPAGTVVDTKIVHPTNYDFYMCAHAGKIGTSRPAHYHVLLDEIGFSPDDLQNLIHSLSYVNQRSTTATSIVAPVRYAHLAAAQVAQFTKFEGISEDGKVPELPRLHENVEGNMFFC

[3] = biological target: T1, AGO4 D660A; assay: as above; conditions: protein: ivt, tags: N-terminal 3xFLAG-SUMO, removed by SUMOstar elution, label: target 3' 32P-cordycepin; for Kd: target 28 nt
[4] = biological target: T3, AGO9 D632A (Arabidopsis thaliana, UniProt Q84VQ0 1-896, D632A); assay: as above; conditions: protein: ivt; tags: N-terminal 3xFLAG-SUMO, removed by SUMOstar elution; label: target 3' 32P-cordycepin; target 28 nt
T3 sequence: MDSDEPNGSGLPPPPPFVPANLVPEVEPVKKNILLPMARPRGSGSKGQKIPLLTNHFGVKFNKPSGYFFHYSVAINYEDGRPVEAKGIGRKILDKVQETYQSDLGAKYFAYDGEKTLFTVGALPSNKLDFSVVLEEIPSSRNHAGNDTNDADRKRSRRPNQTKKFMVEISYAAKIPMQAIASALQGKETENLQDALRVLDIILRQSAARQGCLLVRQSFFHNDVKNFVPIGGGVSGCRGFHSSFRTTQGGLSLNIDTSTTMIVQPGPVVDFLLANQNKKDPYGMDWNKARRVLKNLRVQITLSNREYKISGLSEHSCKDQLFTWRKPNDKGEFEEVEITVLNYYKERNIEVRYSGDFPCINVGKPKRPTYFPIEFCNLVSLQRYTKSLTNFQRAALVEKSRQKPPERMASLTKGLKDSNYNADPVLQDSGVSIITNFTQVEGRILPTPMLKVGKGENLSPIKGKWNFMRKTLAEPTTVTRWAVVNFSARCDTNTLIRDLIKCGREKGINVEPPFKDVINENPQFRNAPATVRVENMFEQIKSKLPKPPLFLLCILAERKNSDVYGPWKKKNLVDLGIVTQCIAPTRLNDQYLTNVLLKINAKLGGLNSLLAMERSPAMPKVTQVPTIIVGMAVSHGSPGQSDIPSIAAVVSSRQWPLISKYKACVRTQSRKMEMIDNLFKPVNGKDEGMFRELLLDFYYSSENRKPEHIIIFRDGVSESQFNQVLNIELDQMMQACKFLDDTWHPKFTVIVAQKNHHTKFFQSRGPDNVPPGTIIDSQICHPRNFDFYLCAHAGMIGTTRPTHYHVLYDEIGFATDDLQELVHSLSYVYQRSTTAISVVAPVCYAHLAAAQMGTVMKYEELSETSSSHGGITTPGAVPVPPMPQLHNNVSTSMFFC

[5] = biological target: T1, AGO4 D660A; assay: as above; conditions: protein: ivt; tags: N-terminal 3xFLAG-SUMO, removed by SUMOstar elution; label: target 3' 32P-cordycepin; mismatch at g20-g21

B1: 24-nt 5'A guide / seed-only (2-8) DNA (DNA:RNA)
RNA: AGAGGUAGAUCCUUGUAUAGUCUC
DNA: ACCTCTGATATGTTCCTACTACCTCTCAA
modifications: guide 3' 2'-O-methyl
B1: no binding [1].

B2: 24-nt 5'A guide / t1U RNA (dsRNA)
RNA 1: AGAGGUAGAUCCUUGUAUAGUCUC
RNA 2: ACGAGACUAUACAAGGAUCUACCUCUCAA
modifications: guide 3' 2'-O-methyl
With B2 the Kd [2] was 50.4 pM, the Kd [3] was 1.71 pM and the Kd [4] was 12.7 pM.

B3: 24-nt 5'A guide / t1T DNA (DNA:RNA)
RNA: AGAGGUAGAUCCUUGUAUAGUCUC
DNA: ACGAGACTATACAAGGATCTACCTCTCAA
modifications: guide 3' 2'-O-methyl
B3 showed a Kd [2] of 7.3 pM, a Kd [3] of 0.93 pM and a Kd [4] of 2.12 pM.

B4: 24-nt 5'A guide / mm23-24 DNA (DNA:RNA)
RNA: AGAGGUAGAUCCUUGUAUAGUCUC
DNA: ACCTGACTATACAAGGATCTACCTCTCAA
modifications: guide 3' 2'-O-methyl
B4: binds ([3]; mismatch at g23-g24).

B5: 24-nt 5'A guide / mm6-7 DNA (DNA:RNA)
RNA: AGAGGUAGAUCCUUGUAUAGUCUC
DNA: ACGAGACTATACAAGGATCATCCTCTCAA
modifications: guide 3' 2'-O-methyl
B5: binds ([3]; mismatch at g6-g7).

B6: 24-nt 5'A guide / mm20-21 DNA (DNA:RNA)
RNA: AGAGGUAGAUCCUUGUAUAGUCUC
DNA: ACGAGTGTATACAAGGATCTACCTCTCAA
modifications: guide 3' 2'-O-methyl
B6: binds ([3]; mismatch at g20-g21).

B7: 24-nt 5'A guide / seed-only (2-8) RNA (dsRNA)
RNA 1: AGAGGUAGAUCCUUGUAUAGUCUC
RNA 2: ACCUCUGAUAUGUUCCUACUACCUCUCAA
modifications: guide 3' 2'-O-methyl
B7: no binding [1].

B8: 24-nt 5'A guide / mm8-9 DNA (DNA:RNA)
RNA: AGAGGUAGAUCCUUGUAUAGUCUC
DNA: ACGAGACTATACAAGGAAGTACCTCTCAA
modifications: guide 3' 2'-O-methyl
B8: binds ([3]; mismatch at g8-g9).

B9: 24-nt 5'A guide / mm20-21 RNA (dsRNA)
RNA 1: AGAGGUAGAUCCUUGUAUAGUCUC
RNA 2: ACGAGUGUAUACAAGGAUCUACCUCUCAA
modifications: guide 3' 2'-O-methyl
For B9, the binding signal [5] was ~10 fold lower affinity than t1U.
